Results reported in patent publication US20090028889A1, “Novel Polypeptide Ligands For Toll-Like Receptor 2 (TLR2)” (VAXINNATE CORPORATION, priority 2005, published 2009).

target: T1, TLR2 (Homo sapiens, UniProt O60603); test: NF-κB-dependent luciferase reporter assay, parental 293 vs 293.hTLR2 cells; format: cell-based; set-up: host or cells: HEK293 (293.luc, stably carrying κB-LUC reporter); conditions: 293.hTLR2 vs parental 293 cells, four to five hours at 37° C.
Description: NF-κB-dependent luciferase reporter assay: Parental 293 cells and 293.hTLR2 cells (see Example 1, above) were incubated with an aliquot of test peptide four to five hours at 37° C. NF-κB-dependent luciferase activity was measured using the Steady-Glo Luciferase Assay System by Promega (E2510), following the manufacturer's instructions. Luminescence was measured on a microplate luminometer (FARCyte, Amersham) and expressed as relative luminescence units (RLU) after subtracting the background reading obtained by exposing cells to the DMEM medium alone.
The biological activity of the TLR2-binding peptides isolated by the screening method was confirmed using the isolated peptides in an NF-κB-dependent reporter gene assay. For this assay, a synthetic monomer of the DPDSG motif (SEQ ID NO: 5), or a concatemerized copy (DPDSG)5, was incubated on parental HEK293 cells containing an NF-κB-dependent luciferase reporter construct (293) and on TLR2-overexpressing HEK293 cells containing an NF-κB-dependent luciferase reporter construct (293.hTLR2, see Example 1, above). Luciferase activity was then measured. […] Thus, the TLR2-binding peptides identified by the screening assay are functional peptide TLR2 ligands.
Target sequence in this assay (O60603 21-784): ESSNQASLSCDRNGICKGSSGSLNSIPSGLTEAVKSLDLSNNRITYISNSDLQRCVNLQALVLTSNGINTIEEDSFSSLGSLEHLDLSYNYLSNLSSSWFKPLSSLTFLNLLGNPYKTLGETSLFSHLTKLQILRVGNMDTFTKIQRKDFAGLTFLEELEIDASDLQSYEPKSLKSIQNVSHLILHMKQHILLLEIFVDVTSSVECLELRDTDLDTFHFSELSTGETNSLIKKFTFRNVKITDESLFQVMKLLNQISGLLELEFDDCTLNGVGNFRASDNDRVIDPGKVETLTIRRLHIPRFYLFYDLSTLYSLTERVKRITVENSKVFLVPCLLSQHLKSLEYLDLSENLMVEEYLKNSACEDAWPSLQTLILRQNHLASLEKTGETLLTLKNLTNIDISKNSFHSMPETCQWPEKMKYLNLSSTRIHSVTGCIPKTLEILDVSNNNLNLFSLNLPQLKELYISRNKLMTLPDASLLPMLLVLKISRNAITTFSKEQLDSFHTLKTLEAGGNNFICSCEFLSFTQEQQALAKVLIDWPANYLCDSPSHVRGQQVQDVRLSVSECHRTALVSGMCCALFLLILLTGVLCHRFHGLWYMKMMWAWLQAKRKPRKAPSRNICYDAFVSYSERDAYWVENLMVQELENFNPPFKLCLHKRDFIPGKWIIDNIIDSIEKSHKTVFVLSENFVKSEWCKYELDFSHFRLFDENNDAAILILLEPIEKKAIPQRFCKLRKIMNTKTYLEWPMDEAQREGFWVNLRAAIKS

With “(DPDSG)5: concatemerized copy of the DPDSG motif, made by solid phase synthesis (DPDSGDPDSGDPDSGDPDSGDPDSG)” as the substance, how does the “luciferase reporter gene expression” value read?
The value was “activated luciferase reporter gene expression in a TLR2-dependent manner”.

For “DPDSG: peptide TLR2 ligand from phage display; also made as synthetic monomer”, which “luciferase reporter gene expression” value is on record?
The value was “activated luciferase reporter gene expression in a TLR2-dependent manner”.

target: T1, TLR2; test: not given; conditions: cited from earlier work
Target sequence in this assay (O60603 21-784, species assumed): as the sequence (O60603 21-784) above

Which “activation of monocytes and epithelial cells via TLR2 signaling” value does the source give for ALTTE here?
The value was “activate monocytes and epithelial cells via TLR2 signaling”.

target: human TLR2 (hTLR2) (human) (UniProt O60603); test: T7 phage display biopanning, 4 rounds, on 293.hTLR2 cells after negative panning on parental HEK293; percent of 109 sequenced clones; conditions: not given
Sequence (O60603 21-784 limits assumed): as the sequence (O60603 21-784) above

With ACGVY (T7 phage-displayed peptide) as the substance, how does the % ABUNDANCE read?
Its % ABUNDANCE is 0.92%.

With ADTHQ (T7 phage-displayed peptide) as the substance, how does the % ABUNDANCE read?
Its % ABUNDANCE is 0.9%.

With AGCFS (T7 phage-displayed peptide) as the substance, how does the % ABUNDANCE read?
Its % ABUNDANCE is 0.92%.

With AVRLS (T7 phage-displayed peptide) as the substance, how does the % ABUNDANCE read?
The % ABUNDANCE was 0.92%.

Which % ABUNDANCE does the source give for AWAGT (T7 phage-displayed peptide) here?
The % ABUNDANCE was 0.9%.

Which % ABUNDANCE does the source give for CGPKL (T7 phage-displayed peptide) here?
Its % ABUNDANCE is 0.92%.

For CVWLQ (T7 phage-displayed peptide), which % ABUNDANCE is on record?
Its % ABUNDANCE is 0.9%.

For EVCAP (T7 phage-displayed peptide), which % ABUNDANCE is on record?
Its % ABUNDANCE is 0.92%.

With FCGLG (T7 phage-displayed peptide) as the substance, how does the % ABUNDANCE read?
Its % ABUNDANCE is 0.92%.

With GGKLS (T7 phage-displayed peptide) as the substance, how does the % ABUNDANCE read?
Its % ABUNDANCE is 0.92%.

Which % ABUNDANCE does the source give for GPLLH (T7 phage-displayed peptide) here?
Its % ABUNDANCE is 0.9%.

With HLLPG (T7 phage-displayed peptide) as the substance, how does the % ABUNDANCE read?
Its % ABUNDANCE is 0.9%.

With IGRFR (T7 phage-displayed peptide) as the substance, how does the % ABUNDANCE read?
Its % ABUNDANCE is 2.7%.

With IHVVP (T7 phage-displayed peptide) as the substance, how does the % ABUNDANCE read?
The % ABUNDANCE was 0.9%.

With IMRHP (T7 phage-displayed peptide) as the substance, how does the % ABUNDANCE read?
Its % ABUNDANCE is 0.92%.

With IMWFP (T7 phage-displayed peptide) as the substance, how does the % ABUNDANCE read?
The % ABUNDANCE was 0.9%.

For IYKLA (T7 phage-displayed peptide), which % ABUNDANCE is on record?
The % ABUNDANCE was 0.9%.

Which % ABUNDANCE does the source give for KCQSF (T7 phage-displayed peptide) here?
The % ABUNDANCE was 0.92%.

With KGWF (T7 phage-displayed peptide) as the substance, how does the % ABUNDANCE read?
The % ABUNDANCE was 0.9%.

For KYMPH (T7 phage-displayed peptide), which % ABUNDANCE is on record?
The % ABUNDANCE was 0.9%.

Which % ABUNDANCE does the source give for LRQGR (T7 phage-displayed peptide) here?
Its % ABUNDANCE is 0.9%.

Which % ABUNDANCE does the source give for MFGVP (T7 phage-displayed peptide) here?
The % ABUNDANCE was 0.9%.

Which % ABUNDANCE does the source give for MGTLP (T7 phage-displayed peptide) here?
The % ABUNDANCE was 1.8%.

With MISS (T7 phage-displayed peptide) as the substance, how does the % ABUNDANCE read?
Its % ABUNDANCE is 0.92%.

Which % ABUNDANCE does the source give for MRRIL (T7 phage-displayed peptide) here?
The % ABUNDANCE was 0.92%.

Which % ABUNDANCE does the source give for NPPTT (T7 phage-displayed peptide) here?
The % ABUNDANCE was 0.92%.

For NRFGL (T7 phage-displayed peptide), which % ABUNDANCE is on record?
Its % ABUNDANCE is 0.92%.

Which % ABUNDANCE does the source give for NRTVF (T7 phage-displayed peptide) here?
Its % ABUNDANCE is 0.92%.

With NYRRW (T7 phage-displayed peptide) as the substance, how does the % ABUNDANCE read?
The % ABUNDANCE was 0.9%.

Which % ABUNDANCE does the source give for PESGV (T7 phage-displayed peptide) here?
The % ABUNDANCE was 0.92%.

For RGGF (T7 phage-displayed peptide), which % ABUNDANCE is on record?
Its % ABUNDANCE is 0.92%.

Which % ABUNDANCE does the source give for RGGSK (T7 phage-displayed peptide) here?
The % ABUNDANCE was 3.67%.

For RVVAP (T7 phage-displayed peptide), which % ABUNDANCE is on record?
Its % ABUNDANCE is 0.9%.

For SGGLF (T7 phage-displayed peptide), which % ABUNDANCE is on record?
The % ABUNDANCE was 0.92%.

Which % ABUNDANCE does the source give for SHIAL (T7 phage-displayed peptide) here?
Its % ABUNDANCE is 0.9%.

For SRHGR (T7 phage-displayed peptide), which % ABUNDANCE is on record?
The % ABUNDANCE was 0.92%.

For THKPK (T7 phage-displayed peptide), which % ABUNDANCE is on record?
Its % ABUNDANCE is 0.9%.

With VGKND (T7 phage-displayed peptide) as the substance, how does the % ABUNDANCE read?
The % ABUNDANCE was 0.9%.

With VSEGV (T7 phage-displayed peptide) as the substance, how does the % ABUNDANCE read?
Its % ABUNDANCE is 3.67%.
